The target in the assay is cell surface class I HLA-ABC molecules on human umbilical cord vascular endothelial cells (HUVECs) (human). Briefly: flow cytometry on HUVECs, isotype-matched mouse IgG2a control. A general note: A flow cytometer gives signals particle by particle.

The substance “isotype-matched mouse IgG2a mAb (nonspecific mouse monoclonal antibody)” yielded a percent binding (control threshold) below 1%.

(Values after patent publication US7084106.)
